Test results as given in the nanobody polyreactivity screen of Harvey et al. (2022).

Test: yeast display, Sf9 membrane polyspecificity reagent, FACS + sequencing; frameworks hold sequencing errors
Procedure, shortened: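 Galactose-induced (36–48 hours) yeast carrying a synthetic nanobody display library were exposed to 10% biotinylated, detergent-solubilized Sf9 membrane reagent at 4 °C for 1 hour. FACS followed streptavidin microbead enrichment, using low and high (top ~1%) gates for expression (anti-HA) and reagent binding (streptavidin). Colony PCR, MiSeq 2 × 250 sequencing and CDR-length filtering followed. Labels for polyreactivity reflect the gate of origin.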

Row | Sequence | polyreactivity (PSR sort gate)
1 | QVQLVESGGGLVQAGGSLRLSCAASGFTFGENAMGWYRQAPWKERELVAAITSGDGTSYADSVKGRFTISRDNAKNTVYLQMNSLKPEVTAVYDCAADGGDELYYSTYDYWGQGTQVTVSS | low polyreactivity
2 | QVQLVESGGGLVQAGGSLRLSCAASGSIFSYYAMGWYRQAPGKERELVAAITWSGGTTYYADSVKGRFTISRDNAKNTVYLQMNSLKPEDTAVYYCAADTYDYWYGVWLEYDYWGQGTQVTVSS | high polyreactivity
3 | QVQLVESGGGLVQAGGSLRLSCAASGFTLARYAMGWYRQAPGKEREFVAAITNGGRTNYADSVKGRFTISRDNAKNTVYLQMNSLKPEDTAVYYCAARYRFGGIRRYNYWGQGTQVTVSS | high polyreactivity
4 | QVQLVESGGGLVQAGGSLRLSCAASGFTFNRNAMGWYIQAPGKERELVAAISWSGGSTYYADSVKGRFTISRDNAKNTVYLQMNSLKPEDTAVYYCAKGYRRVYGPFYYWGQGTQVTVSS | low polyreactivity
5 | QVQLQESGGGLVQAGGSQRLSCASSGYIFYFQYMGWYRQAPGKEREFVAAISDGANTNYADSVKGRFTISRDNAKNTEYLQMNSLKPEDTAVYYCNADQYYWYEYDYWGQGTQVTVSS | low polyreactivity
6 | QVQLVESGGGLVQAGGSLRLSCAASGRIFRYNAMGWYRQAPGKERELVAAISRGDGSTYYADSVKGRFTISRDNAKNTVYLQMNILKPEDTAVYYCAAAWSFIYFQHPAFKYDYWGQGTQVTVSS | low polyreactivity
7 | QVQLQESGGGPVLAGGSLRLSCAASGTIFVRLDMGWYRQAPGKEREFVATIGSGSSTYYADSVKGSFTISRDNVKNTVYLQMNSLKPEDTAVYYCAVSAAEQSRHYYWDQGTQVTVSS | low polyreactivity
8 | QVQLVESGRGLVQAGGSLRLSCAASGSILSINGMGWYRQAPGKERELVATIDGSDGSTFYADSVKGRFTISRDNAKNSVYLQMNSQKPEDTAVYYCAAENFWQTKEYDYWGQGTQVTVRS | low polyreactivity
9 | QVQHVESGGGLVQAGCSLRLSCAASGRIFRLYAMGWYRQARGKERELVAAISSRGGDTYADSVKGRFTISRDNAKNTVYLQMNSLKPEDTAVYYCNAVIYYPYKYGVWYYEYDYWGQGTQVTVSS | low polyreactivity
10 | QVQLVESGGGLVQAGGSLRLSCAATGSIFDYYAMGWYRQAPGKERELVAAISLSGGITYYADSVKGRFTISRDNAKNTVYLQMNSLKPEDTEVYYCAADAIDVLYEYDRYDRRYEYWGQGTQVTVSS | low polyreactivity
11 | QVQLVESGGGLVQAGGSLRLSCAASGFIFYRYAMGWYRQAPGKESELVAAISWGGGSTTYYADSVKGRFTISRDNAKNTVYLQMNSLKPEDTAVYYCAAYIVKGYGSEYYYWGQGTQVTVSS | low polyreactivity
12 | QVQLVESGGGLVQAGGSLRLSCAASGFIFDYYAMGWDRQAPGKESELVAAIRRSGGTTYYADSVKGRFTISRDNAKNTVYLLMNSLKPEDTAVYYCNVDSGEFDYVWVYTYDYWGQGTQVTVSS | low polyreactivity
13 | QVQLVESGGGLVQAGGSLRLSCAASGSIFYFNAMGWYRQAPGKEMELVATIRSGDGRTYYADSVKGRFTISRDNAKNTVYLQMNSLKPEDTAVYYCNASRVVYRQAYLYGYDYWGQGTQVTVSS | low polyreactivity
14 | QVQLVESGGGLVQAGGSLRLSCAASGSTFKRYDLGWYRQAPGKERELFAAIRTSGGTTYYADSVKCRFTISRDYAKNNVYLQMNSLKPEDTAVYYCAASKWPRHRTRRYYYWVQGTQVTVSS | high polyreactivity
15 | QVQLVESGGGLVQAGGSPRLSCAASGSTFVPYDMGWYRQAPAKERELVAAISRGGSTYYADSVKGRFTISRDNAKNTFYLQMNSLKPEDTAVYYCDARARICTVDYWVQGTQVTVSS | high polyreactivity
16 | QVQLVESGGGLVQAGGSLRLSCAASGRTLRVNTMGWYRQAPGKERELVAAISSGGSRTNYADSVKGRFTISRDNAKNTVYLQMNSLKPEDTAVYYCNKYNRFVYSPPSVYWGQGTQVTVSS | high polyreactivity
17 | QVQLVESGGGLVQAGGSLRLSCAASGFNFGCYCMGWYIQAPGKERELVAAITWSGVRTYYADSVKGRFTISRDNAKNTVYLQMNSLKPEDTAVYYCAASGEGGYLENNEFDYWGQGTQVTVSS | low polyreactivity
18 | QVQLVESGGGLVQAGGSLRLSCAASGFTFGPYAMGWYRQAPGKERELVAASSQSGGRTSYADSVKGRFTISRDNAKNTVYLPMNSLKPEDTAVYYCAKRAYGYRSIYRMDYWGQGTQVTVSS | high polyreactivity
19 | QVQLVESGGGLVQAGGSLRLSCAASGITFYGNAMGWYRQAPGKERELVAAIRRGGSTNYADSVKGRFTISRDNAKNTVYLQMNSLKPEDTALYYCAADRYGYTYRNYRVGYWGQGTQVTVSS | high polyreactivity
20 | QVQLVESGGGLVQAGGSLRLSCAASGSTFYRYTMGWYRQAPGKERELVAAISRGGDSTYYADSVKGRFTISRDNAKNTVYLQMNSLKPEDTAVYYCAANVGARKFGYEYNYWGQGTQVTVSS | high polyreactivity
21 | QVQLVESGAGLVQAGGSLRLSCAASGRTFSGYAMGWYRQAPGKERELVASITWSGGSTYYADSVKGRFTISRDNAKNTVYLQMNSLKPDDTAVYYCARDSPRGRVGFNYWGQGTQVTVSS | low polyreactivity
22 | QVQVVESGGGLVQAGGSLRLSCAASGGTFGGYAMGWYRQAPGKERELVAAISSGGSTYYADSVKGRFTISRDNAKNTLYLQMNSLKPEDTAVYYCAAETVLGYWYYRKYYYWGQGTQVTVSS | high polyreactivity

Row | Sequence | polyreactivity (PSR sort gate)
23 | QVQLVESGGGLVQAGGSLRLSCAATGNIFADYAKGWYRQAPGKERELVAAITWSGDDTYYADSVKGRFTISRDNAKNTVYLQMNSLKPEDTAVYYCAAGYWRTSVDFDYWGQCTQVTVSS | low polyreactivity
24 | QVQLVESGGGLVQAGGSLRLSCAASGRTIRHNAMGWYRQAPGKERELVAAISRSGGSTYYADSVKGRFTISRDYAKNTVYLQMNSLKPEDTAVYYCAAGYHIIYTPEYYYWGQGTQVTVSS | high polyreactivity
25 | QVQLVESGGGLVQAGGSLRLSCAASGSIFVFYDMGWYRQAPGKERELVATISSGGGGTYYTDSVKGRFTISRDNAKNTVYLQMNSLKPEDTAVYYCAAEGDKYGKGDGYWGQGPQVTVSS | low polyreactivity
26 | QVQLGESGGGLVQAGGSLRLSCAASGSIFAFNTMGWYRQAPGKERELVAAITWGGGSTYYADSVKGRFTISRDNAKNTVYLQMNSLKPEDTAVYYCAARRSGRTRYYWGQGTQVTVSS | high polyreactivity
27 | QVQLVESGGGLVQAGGSLRLSCAASGSIFYWNAMGWYRQAPGKERELVAAINYSGDSTYYADSVKGRFTISRDNAKNTVYLQMNSLKPEDTAVYYCNFDYWGQGTQVTVSS | low polyreactivity
28 | QVQLVESGGGLVQAGGSLRLSCAATGGIFNVYVMGWYRHAPGKESEFVAAITWRGGSTYYADSVKGRFTISRDNAKNTVYLQMNSLKPEDTAVYYCNADAPFQSSSDGYQVEYWGQGTQVTVSS | low polyreactivity
29 | QVQLVESGGGLVQAGGSLRLSCAASGSIFSRYALGWYRQAPGKERELVAAISTIGGSTYYADSVKGRFTISRDNSKNTVYLQMNSLKPEDTAVYYCNARQSAALSPRYGYWGQGTQVTVSS | high polyreactivity
30 | QVQLVESAGGLVQAGGSLRLSCYASGRIFPAYAMGWYRQAPGKERELVASIRRGGITYADSVKGRFTISRDNAKNTVYLQMNSLKPEDTAVYYCNADSRGWGYHMDYWGQGTQVTVSS | low polyreactivity
31 | QVQLVESGGGLVQAGGSLRLSCAASGRIFKRYVMGWYRQAPGKERELVAAISVRGASTYYADSVKGRFTISRDNAKNTVSLQMNSLKPEDTAVYYCATAGYRLLDYWGQGTQVTVSS | high polyreactivity
32 | QVQLVESGGGLVQAGGILRLSCPASGSTLDRYVMGWYRQAPGKERELVAVISQSGGSTYYADSVKGRFTISRDNAKNTVYLQINSLKPEDTAVYYCAAKRYSFAYRQYDYWGQGTQVTVSS | high polyreactivity
33 | QVQLVESGGGLVQAGGSLRLSCAASGRTFWSNAMGWYRQAPGKERELVAAISTGAGSTYYADSVKGRFTISRDNAKNTVYLQMNSLKPEDTAVYYCAAVYNGALYTYYYWGQGTQVTVSS | high polyreactivity
34 | QVQLVESGGGLVQAGGSLRLSCAASGRTFGGYAMGWYRQAPGKERELVAAITYSGGSTYYADSVKGRFTISRDNAKNTVYLQMNSLKPEDTAVYYCAAEGSSSYTYDYWGQGTQVTVSS | low polyreactivity
35 | QVQLVESGGGLVQAGGSLRLSCAASGLTFRLNAMGWYRQAPGKERELVAAITAIGDRTYYADSVKGRFTISRDNAKNTVYLQMNSLKPEDTAVYYCNVTPRRAQVRIGNYWGQGTQVTVSS | high polyreactivity
36 | QVQLVESGGGLVQAGGSLRLRCAASGFIFRWYAMGWYRQAPGKERELVARISNGGSTYYADSVKGRFTISRDNAKKTVYLQMNSLKPEDTAVYYCAARLPYGYYSAGYYYWGQGTQVTVSS | high polyreactivity
37 | QVQLVESGGGLVQAGGSLRLSCAASGSIFYPNVMGWYRQAPGKERELVAAIRTSGGSTYYADSVKGRFTISRDNAKNTVYLQMNSLKPEDTAVYYCAADYIYVKYEYWGQGTQVTVSS | high polyreactivity
38 | QVQLVESGGGLVQAGGSLRLSCAASGFTFRGNAMGWYRQAPGKERELVAAITRRGGSTYYADSVKGRFTISRDNAKNTVYLQMNSLKPEDTAVYYCARDSPRPPQSSRMAYWGQGTQVTVSS | high polyreactivity
39 | QVQLVESGGGLVQAGGSLRLSSAASGRIFVVNAMGWYRQAPGKERELVAAISKSGARTYYADSVKGRFTISRDNAKNTVYLQMNSLKPEDTAVYYCAAESKGYSQSVFPYDYWGQGTQVTVSS | high polyreactivity
40 | QVQLVESGGGLVQAGGSLRLTCAASGSIFFYYTMGWYRQAPGKERELVAAISVGGSTYYADSVKGRFTISRDNAKNTVYLQMNSLKPEDTAVYYCNAVPAKGYVTVVRYYYWGQGTQVTVSS | low polyreactivity
41 | QVQLVESGGGIVQAGGRHRLSCAASGRTFWRNPMGWYSPAPGKERELVASIRITGGSTYYADSVMGRFTISRDNAKTTVYLQMNSLNAEDTAVYYCPASSGIRFVGLSYPIGNYYYWGQGSQVTVSS | high polyreactivity
42 | QVQLVESGGGLVQAGGSLRLSCAASGSISKINAMGWYRHAPGKERELVAAINTGDSTYYADSVKGRFTISRDNAKNTVYLQMNSLKPEDTAVYYCAAEGAPTGYDYWGQGTQVTVSS | low polyreactivity
43 | QVQLVESGGGLVQAGGSLRLSCAASGSIFVQYAMGWYRQAPGNERELVAAISNRGGSTYYADSVKGRFTISRDNAKNTVYLQMNSLKPEDTAVYYCAARKYWGYGTRYYYWGQGTQVTVSS | high polyreactivity
